# In the DeepSol protein solubility set:
# Experiment: soluble on expression in E. coli; label from the status in PepcDB or PDB records
row,Sequence,soluble on expression in E. coli
1,MLEANVYDNFNPNYYNISDFSMPNGKKEKRGLPIPKARCQVINYELWETGYLYTSSATLTVSVEVGDIVQILFPEVVPIEEALGKKKKLNLDMVYLVTDVDESNKATLKNYFWAMIESLDVPNAITKTTNFAIIDYLIDPNKNNLMSYGYFFNSSIFAGKATINRKAETSSAHDVAKRIFSKVQFQPTTTIQHAPSETDPRNLLFINFASRNWNRKRITTRVDIKQSVTMDTETIVERSAYNFAVVFVKNKATDDYTDPPKMYIAKNNGDVIDYSTYHGDGTDLPDVRTAKTLFYDRDDHGNPPELSTIKVEISPSTIVTRLIFNQNELLPLYVNDLVDIWYEGKLYSGYIADRVKTEFNDRLIFVESGDKPNVI,soluble
2,MSLKKNVYFLLALLLIGLSACDNAPKFKVQGEINGAEDKMLYLEASGLDGIVALDSAKLGSSGSFSFAQKRPESPEFYRLRLDNKVINFAVDSTETVSVKAEINDFATAYRIEGSENNLKIKELVLLQADLQKNVDKLGQNRNIPAGIAQDSLLAMVNNYKNKVKREYIFAAPNMPYAYFALFQSLNGYMIFDPLTNKEDVKCFAAVATSLNNAYPHADRSRNLYNMVIKGMKNTRTPRQQTMEIPEDKIKEASIIDIQLKDLKGNTRSLTDLKGKVVLIDFTVYNNAMSAAHNLALRELYNKYASQGFEIYQISLDGDEHFWKTSADNLPWVCVRDANGAYSSYISLYNVTNLPSVFLVNRNNELSARGENIKDLDEAIKKLLEGHHHHHH,not soluble
3,MEGSSSTIARKTWELENSILTVDSPDSTSDNIFYYDDTSQTRFQQEKPWENDPHYFKRVKISALALLKMVVHARSGGTIEIMGLMQGKTDGDTIIVMDAFALPVEGTETRVNAQDDAYEYMVEYSQTNKLAGRLENVVGWYHSHPGYGCWLSGIDVSTQRLNQQHQEPFLAVVIDPTRTVSAGKVEIGAFRTYSKGYKPPDEPVSEYQTIPLNKIEDFGVHCKQYYSLDVTYFKSSLDSHLLDLLWNKYWVNTLSSSPLLGNGDYVAGQISDLAEKLEQAESHLVQSRFGGVVPSSLHKKKEDESQLTKITRDSAKITVEQVHGLMSQVIKDELFNSMRQSNNKSPTDSSDPDPMITY,soluble
4,GVKYAYHGGAMANGIASVELVVALGKAGFLCSFGAAGLVPDAVEDAIKRIQAELPNGPYAVNLIHAPAEEALERGAVERFLKLGVKTVEASAYLGLTEHIVWYRLAGLSKNSDGSVKIGNKVIAKVSRTEVGRRFMEPAPQKLIDKLLAQGKVTQEQAELSKLVPMADDITAEADSGGHTDNRPFLTLLPTIIALRDEVQAQYNFSPALRVGAGGGIGTPEAALAAFNMGSAYIVLGSVNQACVEAGASEYTRKLLAQVEMAD,not soluble
5,MIKTLKEHTKIVRSVTFSPNGKYLAVGDICGTVEIWRVL,soluble
6,MGSDKIHHHHHHMSLAIVYSRASMGVQAPLVTIEVHLSNGKPGFTLVGLPEKTVKEAQDRVRSALMNAQFKYPAKRITVNLAPADLPKEGGRFDLPIAIGILAASDQLDASHLKQFEFVAELALTGQLRGVHGVIPAILAAQKSKRELIIAKQNANEASLVSDQNTYFAQTLLDVVQFLNGQEKLPLATEIVKESAVNFSGKNTLDLTDIIGQQHAKRALTIAAAGQHNLLFLGPPGTGKTMLASRLTGLLPEMTDLEAIETASVTSLVQNELNFHNWKQRPFRAPHHSASMPALVGGGTIPKPGEISLATNGVLFLDELPEFERKVLDALRQPLESGEIIISRANAKIQFPARFQLVAAMNPSPTGHYTGTHNRTSPQQIMRYLNRLSGPFLDRFDLSIEVPLLPQGSLQNTGDRGETSAQVREKVLKVREIQMERAGKINAYLNSKEIERDCKLNDKDAFFLEKALNKLGLSVRAYHRILKVSRTIADLQGEQQIFQPHLAEALGYRAMVRLLQKLSNM,not soluble
7,MKVRASVKRICDKCKVIRRHGRVYVICENPKHKQRQG,soluble
8,MSTSSHTVLLIQTSPRLDSRTWGDYESVTDALDALCKMFEDFLSKKSAAPVTYDVSQVYEFLDKLSDVSMMIFNRETGQYIGRTRAWIKQQVYEMMRGRCQHPEGGEKVIVGY,not soluble
9,MSQSKADYINVIGAGLAGSEAAYQIAKRGIPVKLYEMRGVKATPQHKTTNFAELVCSNSFRGDSLTNAVGLLKEEMRRLDSIIMRNGEAHRVPAGGAMAVDREGYAEAVTAEIESHPLIEVIRKEITEIPDDAITVIASGPLTSDALAEKIHELNGGDGFYFYDAAAPIVDKATIDMNKVYLKSRYDKGEAAYLNCPMTKEEFMAFYEALTTAEEAPLNSFEKEKYFEGCMPIEVMAKRGIKTMLYGPMKPVGLEYPEDYMGPRDGDFKTPYAVVQLRQDNAAGSLYNIVGFQTHLKWGEQKRVFQMIPGLENAEFVRYGVMHRNSYMDSPNLLKQTFQSKSNPNLFFAGQMTGVEGYVESAASGLVAGINAARLFKGEDEVIFPHTTAIGSLPYYVTHAESKHFQPMNVNFGIIKELEGPRIRDKKERYEKIAERSLKDLQTFIDALEHHHHHH,soluble
10,MSPQVSIVIPNHDYGRYLDACLDSLAAQTLPVQRMEVIVVDDASGDDSLERAARWQACHPWKAFTVVPLSRVGRPGPVRNAGLRRAQAALMLCLDPDDTLAPEALVRMVEALDNAPHAHVASSDYFEHRGEHIRRVNIPDDDSNVLPTQNPCHSASLFRREVWEATGGYTAATAYEDWDFWVRAASCGMRRVRVPYPLVHYRLRDDGFWVGASADDAKAKAAIVRRTPAFFAPEVRGWAVAILRGETWMPAFPRGVIPTAEALRAFRDDCMARLGPQADSLFTALPGWPRKTGESSRSGETGQSGLEHHHHHH,not soluble
11,MKMDTGALTFQQKIYWLVKQIPLGRVATYGQIAALCGWPRHGRYVGYALYRVAPNSDIPWHRVVNAQGKISYAPQRRGTDELQRWRLAAEGIIFTAGLEHHHHHH,not soluble
12,EDYEKVPLPNSVFVNTTESCEVERLFKATSPRGEPQDGLYCIRNSSTKSGKVLVVWDETSNKVRNYRIFEKDSKFYLEGEVLFVSVGSMVEHYHTHVLPSHQSLLLRHPYGYT,soluble
13,MTCDDWNSFIQVNIYGKTIEGLQQQGVVLESLLNNIGCSKLWIVEGSMYTSLTNESSTYSESTIEPVVPLSTTLATNKLPRFSTPAVGHSKYNSAKNFTLNLAEKLSEILSDDDKTDKCLENSYQSETSREDVIQDLLEEMVQTVADVDQAPILLSTTLANIGVPRFSTPIKPQNGLDRKFTMNMTERISEIDSNYQGYELFEDSSNDCTTLIPNCQEVESSFYRALPEAASSIVPYQEGKRRSSRRLSTLSSLKETVKIEPTVSKLTKRRRLTSIESSNETMVPHSEPIPLDKDGFSYEQPINEYGDNESFLSAKSLCTEPRSSISEDVKPVLKATDSERTVSIGNHIVDHHPVIELSTEHNTMGEFQYDFDDEDTVLIGNYEEVGTEIDEAEQQNEENSEDDEEDESPIPSTKKVSFAVPVVQRLNKRNEQMNKNHIIKCNFEGCKQILSWKLRYGKQRLLDHAMTHENEKCLVCRTCEYSCSTHPQMKYHYQKMHPEVRCDGFNIQKVFNIEFDEVAIFDLFQKCFGAHSSIIGNIGKPRRYKKCKNSLKNTPEVDNENVDKDSPGPSHDLF,not soluble
14,MGSDKIHHHHHHMSIQTSDPNETSDLKSLSLIAAHSHITGLGLDENLQPRPTSEGMVGQLQARRAAGVILKMVQNGTIAGRAVLVAGPPSTGKTALAMGVSQSLGKDVPFTAIAGSEIFSLELSKTEALTQAFRKSIGIKIKEETELIEGEVVEIQIDRSITGGHKQGKLTIKTTDMETIYELGNKMIDGLTKEKVLAGDVISIDKASGKITKLGRSFARSRDYDAMGADTRFVQCPEGELQKRKTVVHTVSLHEIDVINSRTQGFLALFTGDTGEIRSEVRDQINTKVAEWKEEGKAEIVPGVLFIDEVHMLDIECFSFINRALEDEFAPIVMMATNRGVSKTRGTNYKSPHGLPLDLLDRSIIITTKSYNEQEIKTILSIRAQEEEVELSSDALDLLTKTGVETSLRYSSNLISVAQQIAMKRKNNTVEVEDVKRAYLLFLDSARSVKYVQENESQYIDDQGNVQISIAKSADPDAMDTTE,not soluble
15,EGELRLGERVLVVGQRLGTIRFFGTTNFAPGYWYGIELEKPHGKNDGSVGGVQYFSCSPRYGIFAPPSRVQRVTDSLDTLSEI,soluble
